Test results: patent US20040266684

Target: T1, purified human Lys77-Plasminogen, P00747
T1 chain: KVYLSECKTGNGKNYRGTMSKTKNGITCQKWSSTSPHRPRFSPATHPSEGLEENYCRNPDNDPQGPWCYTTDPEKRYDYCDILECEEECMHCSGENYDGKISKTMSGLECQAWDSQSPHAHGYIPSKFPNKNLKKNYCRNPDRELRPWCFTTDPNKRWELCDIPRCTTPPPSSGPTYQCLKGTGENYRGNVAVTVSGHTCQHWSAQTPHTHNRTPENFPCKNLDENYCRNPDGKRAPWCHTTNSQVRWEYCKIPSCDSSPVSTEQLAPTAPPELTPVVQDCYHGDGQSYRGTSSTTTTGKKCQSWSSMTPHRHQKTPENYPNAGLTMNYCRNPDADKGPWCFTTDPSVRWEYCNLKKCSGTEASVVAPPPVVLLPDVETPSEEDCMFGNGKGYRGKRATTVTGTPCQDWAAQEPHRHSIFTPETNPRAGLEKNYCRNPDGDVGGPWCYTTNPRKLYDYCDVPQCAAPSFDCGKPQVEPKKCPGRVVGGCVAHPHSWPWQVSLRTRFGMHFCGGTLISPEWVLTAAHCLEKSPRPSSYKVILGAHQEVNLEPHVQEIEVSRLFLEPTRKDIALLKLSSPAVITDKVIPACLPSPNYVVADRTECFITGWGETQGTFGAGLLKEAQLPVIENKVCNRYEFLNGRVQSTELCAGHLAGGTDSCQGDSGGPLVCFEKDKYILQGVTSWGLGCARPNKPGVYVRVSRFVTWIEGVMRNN

B1: thiolated streptokinase (protein)
chain: IAGPEWLLDRPSVNNSQLVVSVAGTVEGTNQDISLKFFEIDLTSRPAHGGKTEQGLSPKSKPFATDSGAMSHKLEKADLLKAIQEQLIANVHSNDDYFEVIDFASDATITDRNGKVYFADKDGSVTLPTQPVQEFLLSGHVRVRPYKEKPIQNQAKSVDVEYTVQFTPLNPDDDFRPGLKDTKLLKTLAIGDTITSQELLAQAQSILNKNHPGYTIYERDSSIVTHDNDIFRTILPMDQEFTYRVKNREQAYRINKKSGLNEEINNTDLISEKYYVLKKGEKPYDPFDRSHLKLFTIKYVDVDTNELLKSEQLLTASERNLDFRDLYDPRDKAKLLYNNLDAFGIMDYTLTGKVEDNHDDTNRIITVYMGKRPEGENASYHLAYDKDRYTEEEREVYSYLRYTGTPIPDNPNDK
plasmin generated in the plasminogen activation assay (S-2251 substrate units): thiolated SK (1 nM) generated plasmin at a nearly linear of 4225 SU/ml
